“And” between values parts separate entries of the source, which are not always exact repeats. Equal values may be shown once. Bridges are numbered along the chain shown (N, C = ends). [ ]: non-standard residue; d: D form. The star is where a group is joined. Chg = N[C@H](C(=O)O)C1CCCCC1; Lauroyl = CCCCCCCCCCCC(=O)*; NMeA = CN[C@@H](C)C(=O)O

In assay [1] the target is T1, β-catenin (UniProt P35222 134-665, limits assumed, biotinylated in the SPR and plate assays).
T1 construct: also called beta catenin; biotinylated β-catenin
T1 sequence (looked up): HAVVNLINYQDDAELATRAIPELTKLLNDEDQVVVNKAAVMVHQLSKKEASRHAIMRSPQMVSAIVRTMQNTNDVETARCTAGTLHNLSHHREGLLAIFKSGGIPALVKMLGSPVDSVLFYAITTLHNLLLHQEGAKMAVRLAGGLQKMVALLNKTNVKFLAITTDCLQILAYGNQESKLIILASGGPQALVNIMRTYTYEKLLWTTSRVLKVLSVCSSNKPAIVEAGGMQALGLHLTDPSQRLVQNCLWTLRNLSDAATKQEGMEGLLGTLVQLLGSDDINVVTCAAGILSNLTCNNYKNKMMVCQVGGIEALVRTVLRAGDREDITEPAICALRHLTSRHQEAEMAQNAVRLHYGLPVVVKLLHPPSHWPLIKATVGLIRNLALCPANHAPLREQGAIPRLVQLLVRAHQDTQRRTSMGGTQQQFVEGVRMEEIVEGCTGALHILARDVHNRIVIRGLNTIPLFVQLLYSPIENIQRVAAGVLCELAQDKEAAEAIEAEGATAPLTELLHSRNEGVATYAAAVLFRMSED
Nature of the assay: SPR (Biacore). The method, then: Biotinylated protein (beta catenin) was immobilized on a high-affinity streptavidin (SA) sensor chip (GE). Peptide at increasing concentrations was flowed over in HBS EP+ buffer at room temperature according to manufacturer's instructions. The maximum binding capacity of the surface (response at saturation) was calculated using the Biacore® system (GE) instructions and binding was measured at each concentration as a data point. The binding levels were determined over a range of analyte concentrations of at least from 20% to 80% saturation of the surface. On rates, off rates, and KD were calculated using Biacore® Insight Evaluation Software software (GE).
(In general: Surface plasmon resonance follows binding to a sensor surface in real time, without labels.)

Assay [2] deals with T1, β-catenin. Nature of the assay: cell-based or functional assay.
Assay [3] addresses T1, β-catenin. Nature of the assay: competitive FP. In short, it runs like this: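 Competitive fluorescence polarization with inhibitor peptide serially diluted from 10 nM to 30 uM; polarization read at 470 nm excitation, 520 nm emission. Experiments performed three times.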

B1: SEQ ID NO: 25 (peptide)
peptide: KMSRMWLLISFWG
HELM: PEPTIDE1{K.M.S.R.M.W.L.L.I.S.F.W.G}$PEPTIDE1,PEPTIDE1,1:R3-13:R2$$$V2.0
SMILES: CC[C@H](C)[C@@H]1NC(=O)[C@H](CC(C)C)NC(=O)[C@H](CC(C)C)NC(=O)[C@H](Cc2c[nH]c3ccccc23)NC(=O)[C@H](CCSC)NC(=O)[C@H](CCCNC(=N)N)NC(=O)[C@H](CO)NC(=O)[C@H](CCSC)NC(=O)[C@@H](N)CCCCNC(=O)CNC(=O)[C@H](Cc2c[nH]c3ccccc23)NC(=O)[C@H](Cc2ccccc2)NC(=O)[C@H](CO)NC1=O
In the assay with β-catenin [1], B1 had a dissociation constant Kd of 112 nM. Also, in the assay with β-catenin [2], the “Wnt Reporter EC50” value is > 7500 nM and ≤ 15000 nM.

B2: SEQ ID NO: 27 (peptide)
peptide: KMSRMWYLISFWG
HELM: PEPTIDE1{K.M.S.R.M.W.Y.L.I.S.F.W.G}$PEPTIDE1,PEPTIDE1,1:R3-13:R2$$$V2.0
SMILES: CC[C@H](C)[C@@H]1NC(=O)[C@H](CC(C)C)NC(=O)[C@H](Cc2ccc(O)cc2)NC(=O)[C@H](Cc2c[nH]c3ccccc23)NC(=O)[C@H](CCSC)NC(=O)[C@H](CCCNC(=N)N)NC(=O)[C@H](CO)NC(=O)[C@H](CCSC)NC(=O)[C@@H](N)CCCCNC(=O)CNC(=O)[C@H](Cc2c[nH]c3ccccc23)NC(=O)[C@H](Cc2ccccc2)NC(=O)[C@H](CO)NC1=O
B2 showed a Kd with β-catenin [1] of 515 nM. Moreover, the “Wnt Reporter EC50” value in the assay with β-catenin [2] was more than 30000 nM.

B3: SEQ ID NO: 467 (peptide)
peptide: Lauroyl-W[NMeA]QSILDEH[Chg]QKVW-NH2
modifications: lactam 8-12; not fully specified; printed as Lauroyl-NH-W-NMeA-QSILDE*H-Chg-QK*VW-NH2
The molecule B3 registered a Kd with β-catenin [3] not above 400 nM. The “Wnt Reporter EC50” value with β-catenin [2] is not above 7500 nM.

B4: SEQ ID NO: 469 (peptide)
peptide: WPQSILDEHGQKVW
modifications: not fully specified; Lauroyl-NH-WPQSILDE*H-Chg-QK*VW-NH2
Take B4: the equilibrium dissociation constant (Kd) in the assay with β-catenin [3] was not above 400 nM. Moreover, the “Wnt Reporter EC50” value with β-catenin [2] was not above 7500 nM.

B5: SEQ ID NO: 45 (peptide)
peptide: MWFLISFWAG
HELM: PEPTIDE1{M.W.F.L.I.S.F.W.[meA].G}$$$$V2.0
SMILES: CC[C@H](C)[C@H](NC(=O)[C@H](CC(C)C)NC(=O)[C@H](Cc1ccccc1)NC(=O)[C@H](Cc1c[nH]c2ccccc12)NC(=O)[C@@H](N)CCSC)C(=O)N[C@@H](CO)C(=O)N[C@@H](Cc1ccccc1)C(=O)N[C@@H](Cc1c[nH]c2ccccc12)C(=O)N(C)[C@@H](C)C(=O)NCC(=O)O
As for B5, the Kd in the assay with β-catenin [3] is > 400 nM and ≤ 1000 nM. Also, in the assay with β-catenin [2], the “Wnt Reporter EC50” value was not above 7500 nM.

B6: SEQ ID NO: 47 (peptide)
peptide: H-MWFLISFWEG-OH
With B6, the dissociation constant (Kd) in the assay with β-catenin [3] was > 400 nM and ≤ 1000 nM. Also, the “Wnt Reporter EC50” value in the assay with β-catenin [2] is not above 7500 nM.

B7: SEQ ID NO: 1 (peptide)
peptide: GWWESILDEHVQRVWG
HELM: PEPTIDE1{[CCCCCCCCCCCCCC(=O)[*:2]].G.W.[meW].E.S.I.L.D.E.H.V.Q.R.V.W.G}$$$$V2.0
SMILES: CCCCCCCCCCCCCC(=O)NCC(=O)N[C@@H](Cc1c[nH]c2ccccc12)C(=O)N(C)[C@@H](Cc1c[nH]c2ccccc12)C(=O)N[C@@H](CCC(=O)O)C(=O)N[C@@H](CO)C(=O)N[C@H](C(=O)N[C@@H](CC(C)C)C(=O)N[C@@H](CC(=O)O)C(=O)N[C@@H](CCC(=O)O)C(=O)N[C@@H](Cc1c[nH]cn1)C(=O)N[C@H](C(=O)N[C@@H](CCC(N)=O)C(=O)N[C@@H](CCCNC(=N)N)C(=O)N[C@H](C(=O)N[C@@H](Cc1c[nH]c2ccccc12)C(=O)NCC(=O)O)C(C)C)C(C)C)[C@@H](C)CC
In the assay with β-catenin [3], B7 gave a Kd not above 400 nM. Further, the “Proliferation IC50, Wnt dependent cells” value with β-catenin [2] came to 18500 nM.

B8: SEQ ID NO: 465 (peptide)
peptide: Lauroyl-W[NMeA]QKILDEH[Chg]EDVWK-NH2
modifications: lactam 11-15, 4-8 (inferred)
In the case of B8, the dissociation constant Kd in the assay with β-catenin [3] is > 400 nM and ≤ 1000 nM. Besides, the “Wnt Reporter EC50” value in the assay with β-catenin [2] is not above 7500 nM.

B9: SEQ ID NO: 452 (peptide)
peptide: WAQKILNDHGQAV
HELM: PEPTIDE1{[ac].W.[meA].Q.K.I.L.N.D.H.[O=C([C@@H](N[*:1])C1CCCCC1)[*:2]].Q.A.V.[am]}$PEPTIDE1,PEPTIDE1,5:R3-9:R3$$$V2.0
SMILES: CC[C@H](C)[C@@H]1NC(=O)[C@@H](NC(=O)[C@H](CCC(N)=O)NC(=O)[C@H](C)N(C)C(=O)[C@H](Cc2c[nH]c3ccccc23)NC(C)=O)CCCCNC(=O)C[C@@H](C(=O)N[C@@H](Cc2c[nH]cn2)C(=O)N[C@H](C(=O)N[C@@H](CCC(N)=O)C(=O)N[C@@H](C)C(=O)N[C@H](C(N)=O)C(C)C)C2CCCCC2)NC(=O)[C@H](CC(N)=O)NC(=O)[C@H](CC(C)C)NC1=O
Turning to B9, in the assay with β-catenin [3], the Kd was > 400 nM and ≤ 1000 nM. The “Wnt Reporter EC50” value with β-catenin [2] was > 15000 nM and ≤ 22500 nM.

B10: SEQ ID NO: 28 (peptide)
peptide: KMSRMWFLISLWG
HELM: PEPTIDE1{K.M.S.R.M.W.F.L.I.S.L.W.G}$PEPTIDE1,PEPTIDE1,1:R3-13:R2$$$V2.0
SMILES: CC[C@H](C)[C@@H]1NC(=O)[C@H](CC(C)C)NC(=O)[C@H](Cc2ccccc2)NC(=O)[C@H](Cc2c[nH]c3ccccc23)NC(=O)[C@H](CCSC)NC(=O)[C@H](CCCNC(=N)N)NC(=O)[C@H](CO)NC(=O)[C@H](CCSC)NC(=O)[C@@H](N)CCCCNC(=O)CNC(=O)[C@H](Cc2c[nH]c3ccccc23)NC(=O)[C@H](CC(C)C)NC(=O)[C@H](CO)NC1=O
In turn, B10 returned a Kd with β-catenin [1] of 803 nM. The “Wnt Reporter EC50” value with β-catenin [2] was > 22500 nM and ≤ 30000 nM.

B11: SEQ ID NO: 459 (peptide)
peptide: Lauroyl-W[NMeA]QKILNDH[Chg]QAVW-NH2
modifications: lactam 4-8
As for B11, the Kd with β-catenin [3] was not above 400 nM. Moreover, the “Wnt Reporter EC50” value with β-catenin [2] is not above 7500 nM.

B12: SEQ ID NO: 471 (peptide)
peptide: Lauroyl-W[NMeA]QSILDEH[Chg]QKVWG-NH2
modifications: lactam 8-12; not fully specified; printed as Lauroyl-NH-W-NMeA-QSILDE*H-Chg-QK*VWG-NH2
In the case of B12, in the assay with β-catenin [3], the equilibrium dissociation constant (Kd) was not above 400 nM. In addition, the “Wnt Reporter EC50” value with β-catenin [2] was not above 7500 nM.

B13: SEQ ID NO: 26 (peptide)
peptide: KMWFLISFWG
HELM: PEPTIDE1{K.M.W.F.L.I.S.F.W.G}$PEPTIDE1,PEPTIDE1,1:R3-10:R2$$$V2.0
SMILES: CC[C@H](C)[C@@H]1NC(=O)[C@H](CC(C)C)NC(=O)[C@H](Cc2ccccc2)NC(=O)[C@H](Cc2c[nH]c3ccccc23)NC(=O)[C@H](CCSC)NC(=O)[C@@H](N)CCCCNC(=O)CNC(=O)[C@H](Cc2c[nH]c3ccccc23)NC(=O)[C@H](Cc2ccccc2)NC(=O)[C@H](CO)NC1=O
As for B13, binding with β-catenin [1] was characterised by a dissociation constant (Kd) of 110 nM. In the assay with β-catenin [2], the “Wnt Reporter EC50” value was > 7500 nM and ≤ 15000 nM.

B14: SEQ ID NO: 463 (peptide)
peptide: WPQSILDKHGQDVW
modifications: not fully specified; Lauroyl-NH-WPQSILDK*H-Chg-QD*VW-NH2
Consider B14, for which the Kd with β-catenin [3] was not above 400 nM. Besides, the “Wnt Reporter EC50” value with β-catenin [2] was not above 7500 nM.

B15: SEQ ID NO: 461 (peptide)
peptide: Lauroyl-W[NMeA]QSILDKH[Chg]QDVW-NH2
modifications: lactam 8-12; not fully specified; printed as Lauroyl-NH-W-NMeA-QSILDK*H-Chg-QD*VW-NH2
B15 returned a dissociation constant Kd with β-catenin [3] not above 400 nM. In addition, in the assay with β-catenin [2], the “Wnt Reporter EC50” value was not above 7500 nM.

B16: SEQ ID NO: 22 (peptide)
peptide: H-MWESILDEHVQRVWG-OH
B16 came in with a Kd in the assay with β-catenin [1] of 1370 nM. Also, the “Wnt Reporter EC50” value with β-catenin [2] was more than 30000 nM.

The Kd is the equilibrium constant for the complex coming apart. Read a low Kd as a tighter complex.

(Values after patent US20260098059A1 (ENDOMET BIOSCIENCES, published 2026).)
